According to article doi:10.1101/293811 (bioRxiv, 2018):

Biological target: alanine or glycine:cation symporter (AgcS) from Methanococcus maripaludis (Methanococcus maripaludis, UniProt Q6LX42)
Assay: crystal structure

alanine or glycine:cation symporter (AgcS) from Methanococcus maripaludis, sequence (Q6LX42 whole entry): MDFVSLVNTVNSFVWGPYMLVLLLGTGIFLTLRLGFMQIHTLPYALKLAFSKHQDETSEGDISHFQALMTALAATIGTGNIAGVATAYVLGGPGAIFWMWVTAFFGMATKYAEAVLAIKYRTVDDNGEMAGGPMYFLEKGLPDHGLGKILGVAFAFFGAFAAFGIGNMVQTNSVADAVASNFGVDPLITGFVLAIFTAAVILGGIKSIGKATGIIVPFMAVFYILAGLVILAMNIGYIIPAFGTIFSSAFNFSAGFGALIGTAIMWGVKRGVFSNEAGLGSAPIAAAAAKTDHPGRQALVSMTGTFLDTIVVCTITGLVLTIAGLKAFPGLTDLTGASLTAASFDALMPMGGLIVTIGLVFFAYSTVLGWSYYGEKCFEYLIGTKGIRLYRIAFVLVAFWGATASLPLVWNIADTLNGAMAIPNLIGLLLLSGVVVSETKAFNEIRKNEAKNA

binding result: binds
B1: 7B4 Fab fragment (Fab, V domains shown)
VH: EVKLEESGGGLVQPGGSMKLSCAASGFTSSDFAMDWVRQSPEAGLEWVAEIAASERHYAESVKGRFTISRDDSKSSVYLQMNSLRAEDSGLYYCTRTAGACGQWGTGTTVTVSS
VL: DIAMTQSPASLSASVGETVTITCRTSENIASALAWYQQKQGKSPQLLVMNAKTLAAGVPSRFSGSGSGTAFSLKINSLQPEDFGSYSCQHAAGWLLTFGGGTKLEIK
